Laboratory results taken from a protein production outcome set (Wang et al. 2014).

Assay: label from the status in PepcDB records

| Sequence | protein production |
| --- | --- |
| MTLWSVASVLTLAFIFWLNAVMTASPYIVYLSGLKKQSERKNRLVALLLLLASLLYFFLKVGSFAAEGFAGMIDTTYMQFIWTGPVGLFIQLQIAVAIAWIVYSVVKLKRIKWVLYVVAIGLMGWSFLSIGHGSDAVWWGKLALLTHLLVAWVWFGSLNSLRKLATSVPLAKAKAIMERFGVHMSAAVPILLIAGLVMYRSATGRWMPELPLTSYDTVLLAKLVFVALILLVAALHKLKFVPQLNDNAAAKRLKNSITAEMVLAVTIFILASALSSAFSPG | failed |
| RAKALQKVKEAITLHGGQTILSTGITGDDARLAKAVCEAGVKLLEPNHPALALARGHKGVSNMHAAEQIRHEITNSQMAEAVHGVRNVVPDDIFITVGIAGGFTETLPVPLSEKEILEIARAGADGLHTHKSDWDDLQDIVNLAHQYGLTVDAYIGHPDDLHTFGIPARTPEEVASVAKRMQDIGVDMIGLMTGMSYEGVAAGDIPQMIKDRLRALVGAVDVPTLAEGGINLANAKAFKDTGVNILVVGTAI | failed |
| MLVFLTRFTPMNLIRNRWAQIFTQSILGVLIAGGTAWAGDPFRPNNPHNIGDQTEAAFEAIFRDGNYRGAEEILAGAIQAEPNEPLVYAMQASFAYDANDMEGMRKYAQQTLESAQRLAPSDPLRGNLYIAVGHFLEGSYLLKKGSYLQAVGKTGTVFEHLDKASAINPNDPELNLLRGYLDLFLSRYTPFSQSEQVISRFEQYAAPDYLRYRALATTYRDLEKYDLAMANIDRALAITPDNPELQYLKGQFLRNEGRRSMDLGKLQQAQQYYAMALQKQDQLSRALVVQLNHENNAVVDEIQKLAQNPSLKGF | failed |
| MSADIVFDRGSPSDIDEIKTFTSNTWKVGYYTDLYSKLADTGTMDDYVDKVIERWVNDGSVYVLRVSGRPVATIHMEKLPDGSVMLGGLRVHPEYRGSRLGMSIMQETIQFLRGKTERLRSAVYSWNEPSLRLVHRLGFHQVEEYPIYTFQGGSTAVPALKPVNERYAGRWRCFFIDWKYMCSDDPDIIHEEYSNNLIVDGSTFVYFDIYEGGIDLFVNDSDDASSFIEKYRSMNGRITFYVRKALANGLPYVPASSLTVWEYRY | not failed |
| MKLERFYRDTILLTMSNFATGILKFIFSVILSEKLGAEGVGLYQLIMPVYDLFCCLVCGGLNIAVSRKVAILSGKNDYSNVNSLIKISSLFCFIWSSLVAVILFFNSRFISNSFIKDMRSLYSLELICPALIFVTISAILKGYFYGISKAKVPAYIDILEKASRVGIVIAIINIFMLKSISKTVTAVYGVLSLGEFISLIALYIAFLIYRRNLRPVYSDRESSGQLIFDVFSVSIPLCINSFVSSLLAAASTLILPVRLVHAGFLHSEALSLIGKFSGMALIVTSFPVVIIVAMSTVLIPEISQNLNKRDYYSIEKRVTQVLKISFFLGTITMIIALSIPNLLGKLFFSRNDLGNYIAASALSVPVDYTSFATFSILSGLGKQNKLLINSLIVSIEQLILLYVLTGIRFINIYGYAITLFVTCLTAYILNMKEIRKVCYIRFSFVDMFIDTLLCILVYLILSILNNIVPNRFILPKTLFIIILGFVLFTFAITKIKDKLK | failed |
| MGGEASPRSLQDWRHVHNTIIPAHVLSLDDVRERAGRNRLEVAYLDDVLVGCSTVRPPADAPTPDAPATATVIARVLAAHRGRGFGGEMYERGLKHARALGAQVIETVVLSSNPDGLRFALKHGFAETERYLLPGDTVPWIDLRLSV | failed |
| MEKIGETMAKLGQNTRVNSDQLIQTILADPEVASFISQHHLSQEQINLSLSKFNQFLVERQKYQLKDPSYIAKGYQPILAMNEGYADVSYLETKELVEAQKQAAISERIQLVSLPKSYRHIHLSDIDVNNASRMEAFSAILDFVEQYPSAEQKGLYLYGDMGIGKSYLLAAMAHELSEKKGVSTTLLHFPSFAIDVKNAISNGSVKEEIDAVKNVPVLILDDIGAEQATSWVRDEVLQVILQYRMLEELPTFFTSNYSFADLERKWATIKGSDETWQAKRVMERVRYLAREFHLEGANRRLEHHHHHH | not failed |
| MASLIMTTPFPGSVTACKKTNNLSVQRAFKVTCMQTEKPLEELYNVKVERKVSQKRLEELGVSRWSVWKTGKCKLPWDWQVDQLVYIEQGEVRVVPEGSKRYMQFLAGDLVRYPKWLEADLFFNAPYIERYCFKAYGDD | failed |
| MFGKLLKKEIKELLNLGAIVSVIVVAVLYGSLGNVFKSTVEKSTVGQKVAIVREDTGTIAELAEKALGNMVDIVYAGSDLKEAEEAVKKEKAPAIIVIPKGFSQSLESGEKARLEIVWYLRGTGLSEAVSTGTISSLIESLKVQLASFLLNDPKKAQLLFDPLEIVQHTYLRGSLFKNHSPEAIMNVFYSQNIMIPILIMMLIIMSGSSLISSLAMEKENKTLETLLTMPVKREHIALAKIVGSAIVGLILAGIYMAGFYSYLNSLTQNVQGMGLNFKAVDFLLMGSSLFLSILAGLSLCMLLGMMAKDYRSAQLLTFPISILALVPMIANMIMDFSNLPGVLKVIVFLIPFSHPIMSPKLAFYGDYGLIVSGILYLLIFSIVTTVFVFRIFNSDYVVLGWQREKRLKFFSR | failed |
| GHMEERVLGMPAVESNMFPLGKQAPPFALTNVIDGNVVRLEDVKSDAATVIMFICNHCPFVKHVQHELVRLANDYMPKGVSFVAINSNDAEQYPEDSPENMKKVAEELGYPFPYLYDETQEVAKAYDAACTPDFYIFDRDLKCVYRGQLDDSRPNNGIPVTGESIRAALDALLEGRPVPEKQKPSIGCSIKWKPSA | not failed |
| SKAWLHQYSVVGRKIPTQEEPEPPIYRLKIFAPNVVNAKSRFWYFLRKLKRVKKSSGEILNISEIFEKKSTQVKNYGIWIRYKSRSDTINMYREYRDVTVNGAVEQMYKDMSGRHRARWSSIWVLKAMPVAAKDCRRSKVTQFHDSKIKFALPHMRPRAPLKKYNTPFKAKRPTTIVQ | not failed |
| MRWGSWLALAGLNAFLSIASGAFAAHALSALGDAHGVGLMEKSARYQMYGAFALVVCAWLAERGVGGRLVAVAGWLHLAGVVLFCGALSAIALLGWPAGPVAPLGGSAMLLGWGVLAWIGLRARRGA | failed |
| MYKKNLMKLLPAVAVIIAIAAAGFQQDSEVKSTKTVQAAENELIKSDELTSLLTTAYFNDGGMKDTDEADSSILKTKKSKSKIKKAGITTGKTKALPEKSAAASGQGQGTTTTPTTSVPKGGYKDGIYQGSGTGFGGTITVQVTISGGKIASIEILSAAGETGSYFASAKGVISKMISGQTPNVDAVSGATYSSNGIIQAVQNALSKAGKGKAAKTTKKTTKKNTNTSNKTTIPVEITKPSGEVTYKDGMYTAEAEGFDGPIKVTVTIKDGKITAITNTNTDTKEYFNKAWNSIQPKILEKQAVYGVDTVIGATFSSNGILKAVQKALEQASVNVTPAPEVTVSPTPVPTTAPAPVIPDTPKVLYNDGTYTGTGIGYGGKINISVTIKDGIITEVSQTNEGETPRYFRNAWNVIQPAIIAKQSTDGIDTVSGATYSSEGILYGAKSALEQALKTSDITATPTPNPTATPEPTAAPEPTAAPEPTAAPEPTAAPEPTATPEPTATPEPTATPEPTTAPGAGYKDGSYTGTGEGFNGQVTVTINVSGGNIVSAGYDGEDDEPEFSNAWNGIYNQIMGKQSADGIDTVTDATYSSNGLIQAFQSAISQAK | failed |
| MKHVDTEIPTEEQIHEAEKFGFHGQVQAAKIRFDRYFPGVLASITVAAAATFLSDHYGAPTMLFALLIGMAFRFLSEDESRALVGIQFASTTVLRIGVALLGMRITLGQIQSLGVKPVVMVFFSVLLTILFGLALSKMMGRGKRFGVLTGGSVGICGASAALAIAAVLPQDEYSERNTIFTVISITALSTLAMIAYPVVAQWFGLDHQAAGIFLGGTIHDVAQVVGAGYSVSEQTGDTATVIKLLRVSMLVPVVFILSLIFHKRNQKDGNAPRRTLLPPFIIFFVLFVGINSLGVVPKPATQFINDVSRWCLVTAIGALGMKTSLKSLFEVGWKPVSIMIAETVFLAVLVLGSVVWMS | failed |
| MKKAGILGLIITIIVLVPVGLGFNWYHSNYGTKTYYTQITTKGERKTGKDDSGKPYVYYHYSQPGYSDNGVKKELTFDSVLPRSLKMHAYLKVGYNDKRQQVINWEKVNQKDIPQAALNRIQKLEHHHHHH | not failed |
| MSLEALMNVQFFDHAHHKLKIRGLQSPVDVLTFEGREQLSTPFRYDIQFTSSDKAIAPESVLMQDGAFSLTAPPVQGMPVQTALRTLHGVITGFKHLSSSQDEARYEVRLEPRMALLTRSRQNAIYQNQTVPQIVEKILRERHQMRGQDFVFNLKSEYPAREQVMQYGEDDLTFVSRLLSEVGIWFRFATDARLKIEVIEFYDDQSGYERGLTLPLRHPSGLFDGETEAVWGLNTAYSVVEKSVSTRDYNYREATAEMTTGQHDATGGDNTTYGEAYHYADNFLQQGDKEAAESGAFYARIRHERYLNEQAILKGQSTSSLLMPGLEIKVQGDDAPAVFRKGVLITGVTTSAARDRSYELTFTAIPYSERYGYRPALIPRPVMAGTLPARVTSTVKNDIYAHIDKDGRYRVNLDFDRDTWKPGYESLWVRQSRPYAGDTYGLHLPLLAGTEVSIAFEEGNPDRPYIAGVKHDSAHTDHVTIQNEGHHHHHH | not failed |
| MLVTKLAPDFKAPAVLGNNEVDEHFELSKNLGKNGAILFFWPKDFTFVCPTEIIAFDKRVKDFQEKGFNVIGVSIDSEQVHFAWKNTPVEKGGIGQVTFPMVADITKSISRDYDVLFEEAIALRGAFLIDKNMKVRHAVINDLPLGRNADEMLRMVDALLHFEEHGEVCPAGWRKGDKGMKATHQGVAEYLKENSIKL | failed |
| MAADPASAPVLLHPRRAMVLAAGLGLRMRPLTETMPKPLVAIHDKPLIDWALDHLATAGVEEAVVNLHHLPEMLEAHLQGRATPRIHFSDETGQRLETGGGVRKALPHLGDDPFYVLNSDVLWLNGTIPALDRLAAAWDPETMDALLLLHPLAAAHGYEGLGDFDLDPLGRPTRRAEMHMAPFIFTGVQILHPRLFDDAPEGPFSLNVLYDRALSEDRLAAIVHDGEWYHVGTPQALVHTETILGQHSSMSDQLEHHHHHH | failed |
| MLIFGFIGLFFLNIFSLHAQGIVTNKDAQEEFKWALNSYNNGIYDDALLSFKKILSFDPNNLDYHFWTGNVYYRLGYVEEALMEWRNLKDQGYKVPYLRHLISTIEQRRGIFSNYELNFKKLVKVASLDNSIYKRPHGYQITSLRADKYGGYYAANFVGNEILYFDVNNNVNALVKDGFSYLKSPYDVIEANNLLYVTLYSSDEIGVYDKVLGVKRKSIGNKGTKDGELLAPQYMAIDKRNYIYVSEWGNKRVSKFGLEGDFILHFGSRTSGYKGLLGPTGVTYLNENIYVADSLRNTIEVFDTSGNHLYSVFTSIEGIEGLSSDFVGNNVIVSSKDGVYKYSIAKKTITKILKADKMNSKISSSILDANNQMIVSDFNNAKVSVYKSDASLYDSLNVDVRRIIRLGGPKIYVELNVSSKSGLPVVGLKSENFSISNENYYIVNPKVAYNVNASKDINIAVVFDKSSYMKKYDTDQIVGLNALMELSKNKNFSFINATSVPIIDNIESLTNSIRNTSSLGPYSTDAVKTDVSLKLAGSGLMSKSSRRAVVYFSGGILNRKAFEKYSLDTIVSYYKNNDIRFYLILFGNDPINSKLQYLVNETGGAVIPFSSYEGVSKVYDLILEQKTGTYLLEYYYPGPQEPNKYFNLSVEANINQQTGRGEFAYFIN | failed |
| MTLYKQLVAGMIAVFILLLISVFTIEFNTTRNSLEQQQRSEVNNTINTVGLALAPYLEKKDTIAVESVINALFDGSSYSIVRLIFLDDGTEILRSYPIQPNNVPAWFTQLNLFEPIHDRRVVTSGWMQLAEVEIVSHPGAAYAQLWKALIRLSIAFLAILVIGMFAVAFILKRSLRPLQLIVNKMEQVANNQFGEPLPRPNTRDLIYVVDGINKMSEQVEKAFKAQAKEAQQLRERAYLDPVSHLGNRAYYMSQLSGWLSESGIGGVAILQAEFIKELYEEKGYEAGDGMVRELADRLKNSITIKDISIARISTYEFGIIMPNMDETELKIVAESIITCVDDINPDPTGMAKANLSLGVVSNKRQSSTTTLLSLLDNALLKRNPILS | failed |
| MEPLGNRRPCSVCITKNRNCPRFCEYAEYFPYELQSQYESANELFGTPNIITMMQHAPEEKKQMLATSIIMEGNAWTEDPISGGFGMIQKLMWKIMLHKAYLRELQEKIKEEKEKKPASSLY | failed |
